Test results as given in article PMC7617869 (Nature Structural & Molecular Biology, 2025).

Key:
Details in all cases: both partners purified
[1] = target: T1, His-tagged BRISC (wild type) (human, UniProt P46736 1-316; Q15018 1-415; Q9NXR7 1-383; Q9NWV8 1-329); test: other fluorescence titration; spectral shift (Dianthus); 12.5 nM RED-Tris-NTA-labelled His–BRISC, SHMT2(A285T) 46 μM to 1.4 nM; 25 mM HEPES pH 7.5, 150 mM NaCl, 1 mM DTT, 0.005% Tween-20; 25 °C; no compound
[2] = target: T1, His-tagged BRISC (wild type); test: other fluorescence titration; spectral shift (Dianthus); labelled His–BRISC first incubated with 100 μM JMS-175-2 (1% DMSO) 15 min, then with SHMT2(A285T) 30 min at 25 °C
[3] = target: T1, His-tagged BRISC (wild type); test: other fluorescence titration; spectral shift (Dianthus); labelled His–BRISC first incubated with 100 μM FX-171-C (1% DMSO) 15 min, then with SHMT2(A285T) 30 min at 25 °C

B1: SHMT2ΔN(A285T) (residues 18–504) (enzyme)
chain: QLVRMAIRAQHSNAAQTQTGEANRGWTGQESLSDSDPEMWELLQREKDRQCRGLELIASENFCSRAALEALGSCLNNKYSEGYPGKRYYGGAEVVDEIELLCQRRALEAFDLDPAQWGVNVQPYSGSPANLAVYTALLQPHDRIMGLDLPDGGHLTHGYMSDVKRISATSIFFESMPYKLNPKTGLIDYNQLALTARLFRPRLIIAGTSAYARLIDYARMREVCDEVKAHLLADMAHISGLVAAKVIPSPFKHADIVTTTTHKTLRGTRSGLIFYRKGVKAVDPKTGREIPYTFEDRINFAVFPSLQGGPHNHAIAAVAVALKQACTPMFREYSLQVLKNARAMADALLERGYSLVSGGTDNHLVLVDLRPKGLDGARAERVLELVSITANKNTCPGDRSAITPGGLRLGAPALTSRQFREDDFRRVVDFIDEGVNIGLEVKSKTAKLQDFKSFLLKDSETSQRLANLRQRVEQFARAFPMPGFDEH
notes: serine hydroxymethyltransferase 2 (SHMT2), residues 18-504; also called SHMT2(A285T); serine hydroxymethyltransferase 2
B1 was tested, and the Kd [1] was 400 ± 100 nM, the “KD after incubation of BRISC with JMS-175-2” value [2] was 700 ± 300 nM and the “KD after incubation of BRISC with FX-171-C” value [3] was 3600 ± 1800 nM.
